The target of assay [1] is T1, HBV env183-191 peptide / HLA-A201 complex on cells (human; Hepatitis B virus).
Assay [2] addresses T2, HBc19-27I peptide / HLA-A201 complex on T2 cells (human; Hepatitis B virus).
T2 construct: whole, on cells
Description: flow cytometry, peptide pulsed T2 cells (FIG. 8A, peptides of Table 4).

The target in assay [3] is T3, HBV env, 348-357 peptide / HLA-A201 complex on T2 cells (human; Hepatitis B virus).
T3 construct: whole, on cells
Description: flow cytometry, peptide pulsed T2 cells. (In general: Flow cytometry measures light scatter and fluorescence of single cells or particles in a stream.)

The target of assay [4] is T4, HBV pol, 455-463 peptide / HLA-A201 complex on T2 cells (human; Hepatitis B virus).
T4 construct: whole, on cells
In words: flow cytometry, peptide pulsed T2 cells.

Assay [5] concerns the target T5, FEC11 (EBV) peptide / HLA-A201 complex on T2 cells (human; EBV). Description: flow cytometry, peptide pulsed T2 cells.
In assay [6] the target is T6, Mage3, 271-279 peptide / HLA-A201 complex on T2 cells (human).
T6 construct: whole, on cells; also called Mage3-271-79
In words: flow cytometry, peptide pulsed T2 cells.

Assay [7] deals with c18-27 peptide alone (free, not on HLA-A2) (Hepatitis B virus). Description: pre-incubation with free peptide, then flow cytometry on the specific target.
Assay [8] concerns the target T1, HBV env183-191 peptide / HLA-A201 …. This is another data set of the same source.
In assay [9] the target is T4, HBV pol, 455-463 peptide / HLA-A201 …. Description: flow cytometry, peptide pulsed T2 cells (FIG. 8A, peptides of Table 4).
For assay [10], the target named is T5, FEC11 (EBV) peptide / HLA-A201 complex …. The description is as above.

B1: c18/A2 mAb (antibody, V domains shown)
VH: QVQLQQSGPELVKPGASVKISCKASGHTFTSYDINWVKQRPGQGLEWIGWIYPGDGSTKYNEKFKGKATLTADKSSSTAYMQLSSLTSENSAVYFCARRDYGYSYAMDYWGQGTSVTVSS
VL: DIQMTQSPASLSTSVGETVTITCRASGNIHNYLAWYQQKQGKSPQLLVYNAKTLADGVPSRFSGSGSGTQFSLKINSLQPEDFGSYYCQHFWSTPFTFGSGTKLEIK
notes: also called HBc18-27 antibody
Take B1: the binding result in [1] was “no binding (tested: 0.5 ug mAb in 50 ul)”; in assay [2] it was “no binding (tested: 1 µM peptide; 0.5 µg mAb)”; in [3], “no binding (tested: 1 µM peptide; 0.5 µg mAb)”; in assay [4] it was “no binding (tested: 1 µM peptide; 0.5 µg mAb)”; in assay [5], “no binding (tested: 1 µM peptide; 0.5 µg mAb)”; in [6], “no binding (tested: 1 µM peptide; 0.5 µg mAb)”. Besides, in assay [7], the binding result is listed as “no binding (tested: 1 uM)”.

B2: E183/A2 mAb (antibody, V domains shown)
VH: QVQLQQPGAEFVKPGASVRLSCKASGYTFSSYWMHWVKQRPGQGLEWIGEIDPSDSYTNYNQKFKGKATLTVDKSSSTAYMQFSSLTSEDSAVYYCATSGYDVGVDYWGQGTTLTVSS
VL: DIQMTQSPASLSASVGETVTITCRASENIYSYLAWYHQKQGKSPQLLVYIAKTLAEGVPSRFSGSGSGTQFSLKIDSLQPEDVGSYYCQHHYGTPYTFGGGTKLEIK
notes: also called HBe183-191 antibody; antibody against HBe183-191
Regarding B2, the “EC50 (read off the curve)” value in assay [8] is approximately 0.01 µg. The binding result in [9], in assay [10] and in [2] was “no binding (tested: 1 µM peptide; 0.5 µg mAb)” each time.

(Values after patent US20120308580A1 (NATIONAL UNIVERSITY OF SINGAPORE, published 2012).)
